The text below walks through data of a protein production outcome set (Wang et al. 2014).
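Note: failed if final PepcDB status was selected cloned or expressed and not failed if soluble or beyond.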

The series in a line: label from the status in PepcDB records.
With “METRANYVIVGIFTLVAILAAFGFVYWTAAIGDRGETTLLRVRIPGSASGLGRGSFVLFNGVKVGDVKRVYIDVDNPTVAIADTEIDRLTPITKSTQADIGLAGLTGQANIELKGADPKEVKLLDQAEKEGKVAEIVANPSAVTNLLQTAQNIFSRADKVLSELEGFTRDVRGPLTQTVQNVQTFSDALAKNSDGIDKFLSSVSALSEELKGVSGKLDGTLKAAEGLLNAVDRDKIKSIVANVDTVTANLKQTSQQLDGVIKNVDTAVGSVNDFAKQTQGTLAKVDGVLDGVDPAQVRAALANIQKASENANKAAADIAVVTEKFANRADDIDQTIKDAKQLAQRLNDASVRVDGILARVDTLLGSGQADGLMADARDTLKSFKQVADTLNARLGVITDNLARFSGQGLSNVEALVQDSRRSITRIEEAVTDLSRNPQRILSGGDGEVRQFDGRARR”, the protein production result is reported as “failed”.

For the sequence “METRYNLKSPAVKRLMKEAAELKDPTDHYHAQPLEDNLFEWHFTVRGPPDSDFDGGVYHGRIVLPPEYPMKPPSIILLTANGRFEVGKKICLSISGHHPETWQPSWSIRTALLAIIGFMPTKGEGAIGSLDYTPEERRALAKKSQDFCCEGCGSAMKDVLLPLKSGSDSSQADQEAKELARQISFKAEVNSSGKTISESDLNHSFSLTDLQDDIPTTFQGATASTSYGLQNSSAASFHQPTQPVAKNTSMSPRQRRAQQQSQRRLSTSPDVIQGHQPRDNHTDHGGSAVLIVILTLALAALIFRRIYLANEYIFDFEL”, the protein production result is on record as “failed”.

Take “METSSSSPVKPRRKDKDEDKFRIGATLAFIVVIIGIGVPMWWRTTTVYRVNLPSTEILSLSKIPIKTAVQVAIYTQQTSRGQLLIAELQNAFSDNEIWSVEFKQLSPTPMTQEAHTPAALEKLLLENHVQSVGDFMFIEWPKLQEELLLTTERSALMRSDTPSNKIAQLLHAKILQTYRINQILSTDERMGAKSEAPQPAYDVIVSVLNPKPRLTHAKWNIAMAVKTYIEPWLAKVSGVSNYTVRSQWKYRVAIEADLKQVRDQSKLGRHYALQETALPHLLTSIAQNLSASTTDKPAINLVVYIPPCHIAPLHIYNSKDQRLTRNDVDAFISPPWGGFIIANPPEHVCLAAMSDQEAVPYHVSTTDNMQVMLDQLHKLLDISSELQMEGVKVVDIEQLEPRRWEYEAYLRRSAIRHISTASSTLQSLIKLLDQISYIVIDDEVGAAITNSYADILAAKAALLEHRLADASVLAKRAFVASERGFFDASLLAQLYFPDEQKYAIYIPLFLPIMVPVLSSFNMLRGVLQARRKEKQS”: the protein production result is reported as “failed”.

As for “METYLEIETLIKRIFNSFRHEVEAVLDKRLSGSEYRVLSLISSGLTKTSDLAKTLDVSASHITAITDTLVEEKLITRHRSEVDRRIIELKLTSNAEEFVKEIDKKKKEMIVKRFAVFSEYEQAEFRKLLKKLADGSQSNK”, the protein production entry is recorded as “failed”.

Take “MEVDTMETLIRLFVSILIICVLALMIKKSRCLDNEGVIGSSIMGFILLYFCGFKYLILLLSFFILGVLVSRVGLEKKKAKKMDETCRSLKNVLANGLIPILFAILAIFGFNWALIGYISSIAAATSDTFSSELGILSNEKPRLITTFEVVEKGTDGAITIFGTLAGVLGAFLIGLFGYLLFGDIKIVLCGTAGGIAGNLADSLVGALFERKGILNNEHVNLIATIVGGIIGVLIYCTL”: the protein production entry is listed as “failed”.

For “MEVERKIVSLEALYIVYDADGTVAGELLYLLRKWLGKGHCAACDITHGPRKVKPEWTILQKTGWLGVPLFNIHRDEMEPKLRSAVSCALPCVAALVDNGDYVLLLQPEDLESCKGQVSKLQEKIVEALKDFGFQVNESFTSVVTSDLSDTCPSTLDREKEEDDAVVPF”, the protein production entry is given as “failed”.

In the case of “MEVLKDFLLFYGGLFAITNPIGAVPVFIAVTRNLSPEKRKEIARKTSTTVMVTLLVFALVGEWIFKFFGASTDAFSIAGGIILFRMSLEMLSGKLSSVKISEEEEHISEEAVTLEEVAIIPLAIPLLSGPGAITTTMLYMAKSSTMIEKSIVLLVVVAIGITVWIILSAANRIHQKLGTIGIKVMTRMMGLILASMAVQMVINGVKGAFNI”, the protein production result is listed as “failed”.

With “MEVLLDVKERMSILKNFYDEVRVVDPINNIVFSDDFNLKINNKFNEKDCSLSNCYDVWGKKSMCSTCISKKAYLKNDTFIKLEYNKNHVFLVIASPIEFNENKYVVEILKDITNNGSIVDGSGEGNYLDLTMKKMGENLIKDYLTGVYNKRYIDQRFSKEAHRNLKESIPTTVIMTDIDSFKKVNDTYGHLVGDKILRDFAKVLNNNIRENSDWIGRYGGEEFIIVLNNTNLKNGVKVAEKLRKIIEKMSFDYGDLSLKITSSFGVCEVSEKEDPFDTIKNADEKLYMAKMTGRNKTVF”, the protein production entry is reported as “failed”.

In the case of “MEVMRGVRVIEGMNGGRFPYCNVVVVGDVVIDAGAGLEVMRKVNASLLVLSHLHPDHSSGAWLFKDVLAPAEGRITLDTLARRFVAPDLVESWKRFISAATGLREFECERYEEGVVVKEPEIVAVPVKGHTMDHHVFLIEQKVLFGADVDLTSFGPFYGNPEADPYLFEREMDKLLDIDFEIFVSAHSKPLEHHHHHH”, the protein production result is recorded as “failed”.

On to “MEVRWCATSDPEQHKCGNMSEAFREAGIQPSLLCVRGTSADHCVQLIAAQEADAITLDGGAIYEAGKEHGLKPVVGEVYDQEVGTSYYAVAVVRRSSHVTIDTLKGVKSCHTGINRTVGWNVPVGYLVESGRLSVMGCDVLKAVSDYFGGSCVPGAGETSYSESLCRLCRGDSSGEGVCDKSPLERYYDYSGAFRCLAEGAGDVAFVKHSTVLENTDGKTLPSWGQALLSQDFELLCRDGSRADVTEWRQCHLARVPAHAVVVRADTDGGLIFRLLNEGQRLFSHEGSSFQMFSSEAYGQKDLLFKDSTSELVPIATQTYEAWLGHEYLHAMKGLLCDPNRLPPYLRWCVLSTPEIQKCGDMAVAFRRQRLKPEIQCVSAKSPQHCMERIQAEQVDAVTLSGEDIYTAGKKYGLVPAAGEHYAPEDSSNSYYVVAVVRRDSSHAFTLDELRGKRSCHAGFGSPAGWDVPVGALIQRGFIRPKDCDVLTAVSEFFNASCVPVNNPKNYPSSLCALCVGDEQGRNKCVGNSQERYYGYRGAFRCLVENAGDVAFVRHTTVFDNTNGHNSEPWAAELRSEDYELLCPNGARAEVSQFAACNLAQIPPHAVMVRPDTNIFTVYGLLDKAQDLFGDDHNKNGFKMFDSSNYHGQDLLFKDATVRAVPVGEKTTYRGWLGLDYVAALEGMSSQQC”, for which the protein production entry is listed as “failed”.

Regarding “MEVSENATTRGSLALVSIILPVHNAEQWLDECLMSVLQQDFEGAMELSVFNDASKDKSRAIIEKWKVKLEDSGISVVIGGHDSPSPRGVGYSKNQAVAQSTGSYLCFLDSDDVMMPQRVRMQYEAAGQHPTSIIGCQVRRDPPDSTERYTRWINHLTSDQLLTQVFTSHGPTVIMPTWFCSRAWFSHVGPFDEGGQGVPEDLLFFYEHLRKGGGVFRVDHSLLLYRYHLYAATHSVLEMTIWTHRVHFLEEQVLPHWKSFTIWNAGKQGRKLYRSLTAASRHKVVAFSDVDENKIRKGFYCYEDSQERPKPKVPILHFQAAQSPFVICVKLDLTGGEFEDNLKSLDLQEGRDFVHFS”, the protein production result is “failed”.

Take “MEVSERIIIGNKISKITIIANIALSILKILAGVFGKSSALIADGMHSFSDILSTVVVMLGLKLSEKPADESHPYGHERIEPALTKILAVILLVTALMIFYCGLTTIIGGNYQIPGNITIIAALISIFTKEWMYKYTKKGAEQIESSALLADAWHHRSDAFSSVGTLIGVVGAKLGYPILDPIASIVISLFIAKMAFEIYFKALNQLLDRAADSKTIEEIKKIILSVDGVLEIDVLKTRIHSNKIYVDVEISVDKDLSLIEAHNISENVHSQIESKLKRVKHCMVHVNPYLK”: the protein production result is given as “failed”.

As to “MEVTNGLNLKDTELRLGLPGAQEEQQLELSCVRSNNKRKNNDSTEESAPPPAKTQIVGWPPVRSNRKNNNNKNVSYVKVSMDGAPYLRKIDLKMYKNYPELLKALENMFKFTVGEYSEREGYKGSGFVPTYEDKDGDWMLVGDVPWDMFSSSCQKLRIMKGSEAPTAL”, the protein production entry is on record as “not failed”.

As to “MEWEIVNLDMTFKVDAPVEEVFRAWTKPSLFKQWFMTTEETNKVAKNQFEINGDWEIIDVREGVEYRAIGTYIDIVSPYKLTFSFKMPQFSELEDIITVEFVDLTGATEVKFNQGIKVPFEGDTNDFEADKTEVKKEMETGYNLMFERLKQLCEG”, the protein production result is “failed”.

With “MEWSLPVDLQEEILSRVPAKSLARWKSTPKQWKGPISIEFLHLLRSTLKFPLLNLHLKSKSIYVTSFTAMVFCYAPPSTKDSRFGIHVQGKPSGFLADEQNKVVVCCKWRSDSINTIYFVGENKHVQVDQRRGDLTLGQSCSFLMNYVPSFVQIQQGTLLAPRT”, the protein production result is “failed”.

Turning to “MEYTVHTPSFRYHDLPYQDCLNKVGTVTLQDYRDDLVALIESLNQPPLLLGHSLGFLVAQMAAKKIEIDGMIFM”, the protein production entry is on record as “failed”.

With “MEYYFTAQKLAVGYDNRPLIENIDFSLKRGEILTLIGPNGAGKSTILKSIARQLSLVSGTIYLDKSDVVTMNGNEFAKKMAVVLTDKLKTELMTCYDVVATGRYPYTGRFGVLSDEDKKAVDEAMELVNVSQIKDKDFTKISDGQRQRVMLSRAICQQPEIIVLDEPTSYLDIKYKLEFLSILQRLKRQKNLTVIMSLHELDMAKRVSDHILCIDGRYVDRYGTPEEVFTDQYVSGLFGITAGSFDETGEDLELEKPDGSARIFVIAGGGLGRKSFRSLQRKGIPFATGIIYENDLDYPAAKALSAEIVSARSFEPVDDALIEKAKELIDACEGVICDRTEFGTYEQFNSRLYEYAVSTGKIIKIPFLEEQLAQL”, the protein production entry is listed as “failed”.

On to “MFAGSIPMYIRVVSITAQSKLQFDMTVTYFENVWSPKVISLGAISAEFVQSNENSGMYIIHYPDKQTAISVFDKIKPEVDEVRTQNRIQITEGKRLFRVD”, for which the protein production entry is “not failed”.

Regarding “MFAMLHVIVDTNWLLLAFSALMFDLPRYTFSLLSWSLVGIFRNSRPGDRWVEAAVSVIIPTFNGGSGLAPTIASLRQQTLSPLEIIIVDDGSTDDTRAVANRARQDGLVDMVICHGTRCGRSAAINAAARFASGDLIFTIDADTVLERDAIARLAHAFNDPRVAGACGNIAIRNESASLWTGLQSVEYMMSISAGKSILDVVGAIACLSGACSMYRRDVFARQGGLDVGPGEDLEFSLRLRRLGYRVRFVPDAWAETDGPVAAVGLLRQRARWDRDALRIRSMMYGELSFFHPLERLPDTLQRLDFIVFDLIPTMSLPFYSMYIVILFGPAHAILFIGAIYFLLLWISLFNMALAFVLFSRSPSFFSLGAAFIFPFYQGIYMKCARFVSYSSEILFATSRRDDYVPPRVRRALFADEVGKVVS”, the protein production entry was “failed”.

For “MFAYTLTTLTLCCTSILITSYISKRKGTLMEYMVFIMSFSMSIGLSIGFYLGILFKGELLYSTLLAILISGFIGFLIGLRFHLYTALEGMFSGLMASMMGAMITEMLNAQQAHSILFISLLLTITITMSCVIQLLSENFSTFIQQRFLLLLSISVVIIVAVFTTFPDHTPAPSPGHNQHIH”, the protein production entry was “failed”.

In the case of “MFDIGVNLTSSQFAKDRDDVVACAFDAGVNGLLITGTNLRESQQAQKLARQYSSCWSTAGVHPHDSSQWQAATEEAIIELAAQPEVVAIGECGLDFNRNFSTPEEQERAFVAQLRIAADLNMPVFMHCRDAHERFMTLLEPWLDKLPGAVLHCFTGTREEMQACVAHGIYIGITGWVCDERRGLELRELLPLIPAEKLLIETDAPYLLPRDLTPKPSSRRNEPAHLPHILQRIAHWRGEDAAWLAATTDANVKTLFGIAF”, the protein production entry was “not failed”.
